Numbering of substitutions follows the chain as printed. Names and notes keep the numbering of the source.
B1: Human PTPA, wild-type (natural protein)
chain: MAEGERQPPPDSSEEAPPATQNFIIPKKEIHTVPDMGKWKRSQAYADYIGFILTLNEGVKGKKLTFEYRVSEAIEKLVALLNTLDRWIDETPPVDQPSRFGNKAYRTWYAKLDEEAENLVATVVPTHLAAAVPEVAVYLKESVGNSTRIDYGTGHEAAFAAFLCCLCKIGVLRVDDQIAIVFKVFNRYLEVMRKLQKTYRMEPAGSQGVWGLDDFQFLPFIWGSSQLIDHPYLEPRHFVDEKAVNENHKDYMFLECILFITEMKTGPFAEHSNQLWNISAVPSWSKVNQGLIRMYKAECLEKFPVIQHFKFGSLLPIHPVTSG
B2: PTPA V281A (natural protein)
chain: B1 chain with V281A
B3: PTPA M294K (natural protein)
chain: B1 chain with M294K
B4: PTPA R293E (natural protein)
chain: B1 chain with R293E
B5: PTPA F100D (natural protein)
chain: B1 chain with F100D
B6: PTPA V209D (natural protein)
chain: B1 chain with V209D

Target: GST-tagged PP2A core enzyme (AC heterodimer) (human, UniProt P30153;P67775)
Sequence (P30153 whole entry, chain 1 of 2): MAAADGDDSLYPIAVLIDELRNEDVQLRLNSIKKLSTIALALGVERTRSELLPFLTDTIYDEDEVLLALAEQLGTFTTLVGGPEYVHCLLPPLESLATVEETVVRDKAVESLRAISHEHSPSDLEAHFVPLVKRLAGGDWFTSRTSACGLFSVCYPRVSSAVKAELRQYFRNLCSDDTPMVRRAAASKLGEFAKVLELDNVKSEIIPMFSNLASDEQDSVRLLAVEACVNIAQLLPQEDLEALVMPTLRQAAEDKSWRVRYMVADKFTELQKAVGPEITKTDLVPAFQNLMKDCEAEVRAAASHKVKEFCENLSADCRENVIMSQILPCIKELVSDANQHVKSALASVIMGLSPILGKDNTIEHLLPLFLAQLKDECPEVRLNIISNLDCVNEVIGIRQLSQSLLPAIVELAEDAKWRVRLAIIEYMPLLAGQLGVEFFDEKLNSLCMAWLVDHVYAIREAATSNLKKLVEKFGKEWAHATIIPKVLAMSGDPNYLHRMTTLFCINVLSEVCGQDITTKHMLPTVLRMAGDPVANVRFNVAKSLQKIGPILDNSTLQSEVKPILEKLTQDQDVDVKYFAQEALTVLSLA
Sequence (P67775 whole entry, chain 2 of 2): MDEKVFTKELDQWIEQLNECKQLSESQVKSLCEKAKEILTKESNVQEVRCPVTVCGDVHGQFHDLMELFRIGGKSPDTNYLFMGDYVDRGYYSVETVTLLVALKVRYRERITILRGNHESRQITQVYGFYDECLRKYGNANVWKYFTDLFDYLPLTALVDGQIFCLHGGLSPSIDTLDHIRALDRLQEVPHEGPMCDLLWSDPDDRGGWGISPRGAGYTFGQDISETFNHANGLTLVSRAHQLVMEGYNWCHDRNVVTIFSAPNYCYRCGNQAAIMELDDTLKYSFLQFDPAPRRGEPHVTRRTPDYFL
Assay: pull-down

Binding result, binds:
B1
B2
B3
B4
B5
B6
